The nature of this data set: label from the status in PepcDB records.

In the case of “DRSRLQCYSEDVTEYRKMEQGLNDLHHRLQAYREYSATGFLLVDARTKTVVEANSAFCQLLGYEESEVLDFTLYQLIAAERPVIEELLINLETQNYLSVPELEYRNREGQTVQVKGEVYRLPWEDREVYCFVMRT”, the protein production entry is recorded as “failed”.
The value for “DSASQAEQFLKLVHADKLTVPVYAQVQQMLAQRFAQAKAPESKKAVLERYQAKANAELDRAIGWDKIKPELIKLYTTNFTESELKDLNAFYQSPLGKKVLEKMPRLTAESAQLTQAKLQGAVEPVNKLMADMDKELGVAAPAQKKK” was “not failed”.
In the case of “DSFKNLENKYDGKIGIYTLNTDDKTNIKYNESYHFPICSVFKFLLVGAILDYDMHNQGFLDKKIPINQDDIGKLGYAPITAKNVGKTLTISQLNYAAILSDSPASNILVRELGGLQNLNKFIKKLGDNDTIITADEPEINYTQPHSNINKTTPKAITKDIYKLAFGNILDKKHKDIFIKYLQDNNTGANRIAFSMPKDWIIGDKTGTCGQYAATNDVAIIWPKNQQPIALGILYTNPNDKNAPSNEEIIQQAAKLIANDLTNTYK”, the protein production result was “not failed”.
The value for “DSTGKTKTAYDFSAGGISPDAPLVVLFHGLEGSSRSHYAVELMLAVRNRGWHGAVVHFRSCGGVANTAPVFYHLGDTAEIAFALDTLTARYREIYAVGVSLGGNAPAKYLGEQGKKALPHASAAVSAPVDAEAAGSRFDSGITRLLYTRYFLRTLIPKARSLQGFQTAFAAGCKTLGEFDDRFTAPLHGFADRHDYYRQTSCKPLLKHVAKPLLLLNAANDPFLPPEALPRADEASEAVTLFQPAHGGHAGFVSST” was “failed”.
Under “DVDIQLVSSNNINDYLHVYDAFARPFGDSYANMVKQHIYSSYNLDDIERLVAYVNHQPVGIVDIIMTDKTIEIDGFGVLEEFQHQGIGSEIQAYVGRMANERPVILVADGKDTAKDMYLRQGYVYQGF” stands “failed”.
The value for “DYQKEYERKLISPEEAANLVKDGMHIEIGGSANTALIIDKYLAKRKDELSHVEVGTFIDIAHYEFLKADPEQEKIKWESCFLYEPVRKCSKELGPCVHRPGVLSDAGYIAKELGGVLKGGKKYTDIAFLVTTPMDRHGFFNFGVTCTFLKSIAEGAEKVVVVVKKDMPWVNGGYDECIHISEVDYIVEDNEFPTPFLPFLPPPSKEDEMIAENIMEAGLIENGSTLQVGIGGLPNTVVRMLKEAGLKDLGIHTEMMGDGLMELMEEGIVTNQNKKLDRGKAVFSFALGTRKLYDFLDRNPEVATYPVEYTNNPFVVAQQPKMFSLNQVAQIDLMGQINSGQIGLTSPSGKIFQISGTGGQLDFVLGCFYSFDRQGKSVLATYSTYNGTSRIIPALPTGAGVTVPRSVVQYVATEWGIAYLRGLPIYKRAAAMIQLAHPDHRDWLEEEARKLGILPPKYSIPAGKADGVIYRRD” was “failed”; that for “EAGEITFTEWCQGAVDMWRANDITRSDITRATRALKPKAGAVDLLAHLQQTDIRFGILSAGVANLAARFEPYEPAFVRGNWLQFEDRRVSAIDIGVGPNEKGELLRKIRSKQNPVSITYIGDSHTDTEAFIEADTAVLFDPDERVPETAIDAADTIIESADIAEVQNCIPTA” was “failed”.
As for “EAHRVLFGFVPETKEELQVMPGNIVFVLKKGNDNWATVMFNGQKGLVPCNYLEPV”, the protein production result is “not failed”.
In the case of “EDAWMGTHPKYLEMMELDIGDATQVYVAFLVYLDLMESKSWHEVNCVGLPELQLICLVGTEIEGEGLQTVVPTPITASLSHNRIREILKASRKLQGDPDLPMSFTLAIVESDSTIVYYKLTD”, the protein production result was “not failed”.
As to “EDDKLKSVEALRQKGNELFVQKDYKEAIDAYRDALTRLDTLILREKPGEPEWVELDRKNIPLYANMSQCYLNIGDLHEAEETSSEVLKREETNEKALFRRAKARIAAWKLDEAEEDLKLLLRNHPAAASVVAREMKIVTERRAEKKADSRVTYSKMFQP”, the protein production result was “not failed”.
With “EDSLATVKVVLIPVGQEIVIPFKVDTILKYLKDHFSHLLGIPHSVLQIRYSGKILKNNETLVQHGVKPQEIVQVEIFSTNPDLYPVRR”, the protein production entry is “failed”.
Take “EDVEFVRLNVSDLLTDPELAQSIFSLLVSAHYQTSPNDWLALLSDPSLFCWAGIDKSSRNVLTCALVSLEGQLDNELIADIQVGKRRPRGHLVPVSLTQTLCINEPAQQSCIRIMRIAVEQHYQRMHLGSKFIEYIKAFYCDLGIDYLSTSFGSTPGLNEFWLSLDF”: the protein production entry is given as “failed”.

For the origin of these results see a protein production outcome set (Wang et al. 2014).
